Reference: patent US20240287172A1 (SCIRHOM, published 2024)

B1: antibody 48 (antibody, V domains shown)
VH: QVQLQQSGTELVRPGTSVKVSCKASGYAFTNYLIEWVKQRPGQGLEWIGVINPGSGFTKYNEKFKGKATLTADKSSSTVYMHLSSLTSEDSAVYFCARGLYRAMDYWGQGTSVTVSS
VL: DIQMTQSPASQSASLGESVTITCLASQTIATWLAWYQQKPGKSPQLLIYGATTLADGVPSRFSGGGSGTKFSFKISSLQAEDFVSYYCQQLYSTPYTFGGGTKLEIK
notes: mouse IgG, kappa light chain; also called clone #48; purified antibody 48
B2: antibody 50 (antibody, V domains shown)
VH: QVQLQQSGAELVRPGASVKVSCKASGYAFSNYLIEWVKQRPGQGLEWIGVINPGSGFTKYNEKFKGKATLTADKSSSTAYMQLSSLTSEDSAVYFCARGLYRAMDYWGQGTSVTVSS
VL: DIQMTQSPASQSASLGESVTITCLASQTIGTWLAWYQQKPGKSPQLLIYAAASLADGVPSRFSGGGSGTKFSFKISSLQAEDFVNYYCQQIYSTPYTFGGGTKLEIK
notes: mouse IgG, kappa light chain; also called clone #50; purified antibody 50
B3: antibody 43 (antibody, V domains shown)
VH: QVALKESGPGILQPSQTLSLTCSFSGFSLSTFGMGVGWIRQSSGKGLEWLANIWWDDDKYYNPALKSRLTISKDASKNQAFLKIANVDTADTATYYCARIGNYGSNYWYFDVWGTGTTVTVSS
VL: QIVLTQSPAIMSASPGERVTMTCSANSRISYMYWYQQKPGSSPRLLIYDTSNLASGVPVRFSGSGSGTSYSLTISRMEAEDAATYNCQQWSSYPLTFGAGTKLELK
notes: mouse IgG, kappa light chain; also called clone #43; purified antibody 43

Molecular target: T1, hiR2-FL-G587N-T7 (human, UniProt Q6PJF5 1-856)
T1 sequence: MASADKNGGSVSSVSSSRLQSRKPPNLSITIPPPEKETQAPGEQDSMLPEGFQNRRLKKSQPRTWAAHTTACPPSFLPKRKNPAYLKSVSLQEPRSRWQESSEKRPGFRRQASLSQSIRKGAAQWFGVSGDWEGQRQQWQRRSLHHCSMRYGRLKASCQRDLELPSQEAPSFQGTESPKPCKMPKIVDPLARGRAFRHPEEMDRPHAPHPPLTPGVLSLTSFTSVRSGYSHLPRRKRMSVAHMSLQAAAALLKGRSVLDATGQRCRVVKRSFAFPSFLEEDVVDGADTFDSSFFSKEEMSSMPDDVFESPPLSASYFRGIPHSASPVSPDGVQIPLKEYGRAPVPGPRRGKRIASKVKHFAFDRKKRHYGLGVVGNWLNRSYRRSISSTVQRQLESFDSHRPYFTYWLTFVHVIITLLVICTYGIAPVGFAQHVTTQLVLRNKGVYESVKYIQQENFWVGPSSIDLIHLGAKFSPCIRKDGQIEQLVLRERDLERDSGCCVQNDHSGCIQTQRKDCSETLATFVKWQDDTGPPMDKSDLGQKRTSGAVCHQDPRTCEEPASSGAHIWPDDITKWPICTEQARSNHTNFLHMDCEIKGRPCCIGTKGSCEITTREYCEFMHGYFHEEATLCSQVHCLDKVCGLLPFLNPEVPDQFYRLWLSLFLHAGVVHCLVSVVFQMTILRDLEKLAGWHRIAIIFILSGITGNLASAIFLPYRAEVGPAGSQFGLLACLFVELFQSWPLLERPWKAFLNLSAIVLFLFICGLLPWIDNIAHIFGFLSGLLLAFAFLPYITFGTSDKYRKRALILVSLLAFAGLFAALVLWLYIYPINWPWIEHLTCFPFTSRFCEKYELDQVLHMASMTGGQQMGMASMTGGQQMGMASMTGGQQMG
Assay: FACS, MEF-DKO cells, 3 µg/ml
From the text: In brief, immortalized MEF-DKO hiR2-FL-G563D-T7, MEF-DKO hiR2-FL-A564P-T7, MEF-DKO hiR2-FL-1566E-T7, MEF-DKO hiR2-FL-D569E-T7, MEF-DKO hiR2-FL-E579K-T7, MEF-DKO hiR2-FL-Q580N-T7, MEF-DKO hiR2-FL-A581S-T7, MEF-DKO hiR2-FL-R582A-T7, MEF-DKO hiR2-FL-S583G-T7, MEF-DKO hiR2-FL-G587N-T7, MEF-DKO hiR2-FL-F588H-T7, MEF-DKO hiR2-FL-L589P-T7, MEF-DKO hiR2-FL-E594V-T7, MEF-DKO hiR2-FL-K596T-T7, MEF-DKO hiR2-FL-S607R-T7, MEF-DKO hiR2-FL-T612S-T7, MEF-DKO hiR2-FL-E617D-T7, MEF-DKO hiR2-FL-H620R-T7, MEF-DKO hiR2-FL-L636M-T7, MEF-DKO hiR2-FL-K638D-T7, MEF-DKO hiR2-FL-1771F-T7, MEF-DKO hiR2-FL-1825V-T7, MEF-DKO hiR2-FL-1828V-T7, MEF-DKO hiR2-FL-N829R-T7, MEF-DKO hiR2-FL-W830C-T7, MEF-DKO hiR2-FL-P831E-T7, MEF-DKO hiR2-FL-I833C-T7, MEF-DKO hiR2-FL-H835F-T7, MEF-DKO hiR2-FL-F8391-T7, MEF-DKO hiR2-FL-S843D-T7, MEF-DKO hiR2-FL-Q853A-T7, MEF-DKO hiR2-FL-V854Q-T7 and MEF-DKO hiR2-FL-R844K-T7 cells were harvested with 10 mM EDTA in PBS, washed and resuspended in FACS buffer (PBS, 3% FBS, 0.05% sodium azide), and seeded in Nunc U-bottom 96-well plates (Thermo Fisher Scientific, USA) at approximately 1×10⁵ cells per well. To pellet cells and remove supernatants, the plates were centrifuged at 1,500 rpm and 4° C. for 3 minutes. For primary staining, cells were resuspended in 100 μl per well of either FACS buffer alone (controls) or the purified antibodies 3, 5, 16, 22, 34, 42, 43, 44, 48, and 50 of the invention at 3 μg/ml in FACS buffer and incubated on ice for 1 hour. Afterwards, plates were centrifuged at 1,500 rpm and 4° C. for 3 minutes and washed twice with 200 μl per well of FACS buffer. For secondary staining, cells were spun down and resuspended in 100 μl per well of PE-conjugated goat anti-mouse IgG F(ab′)2 detection fragment (Dianova, Germany) diluted 1:100 in FACS buffer. Protected from light, the cell suspensions were incubated on ice for 1 hour. Plates were then centrifuged at 1,500 rpm and 4° C. for 3 minutes and washed three times with 200 μl per well of FACS buffer. Finally, cells were resuspended in 150 μl per well of FACS buffer and analyzed using a BD Accuri™ C6 Plus flow cytometer (Becton Dickinson, Germany).

Row | Binder | loss of binding vs wild type [%]
1 | B1 | ≥ 60
2 | B2 | ≥ 60
3 | B3 | ≥ 30
